Measurements reported in patent publication WO2019030706A1 (dated 2019).

B1: wild-type anti-exosite 1 IgA antibody (antibody, V domains shown)
VH: QVQLIQSGSAVKKPGASVRVSCKVSGYTLTEAAIHWVRQAPGKGLEWMGGLDPQDGETVYAQQFKGRVTMTEDRSTDTAYMEVNNLRSEDTATYYCTTGDFSEFEPFSMDYFHFWGQGTVVTVAS
VL: EIVLTQSPATLSLSPGERATLSCRASQNVSSFLAWYQHKPGQAPRLLIYDASSRATDIPIRFSGSGSGTDFTLTISGLEPEDFAVYYCQQRRSWPPLTFGGGTKVEIKR
notes: also called anti-thrombin IgA; anti-IIa IgA
B2: synthetic anti-exosite 1 IgG antibody (antibody, V domains shown)
VH: QVQLIQSGSAVKKPGASVRVSCKVSGYTLTEAAIHWVRQAPGKGLEWMGGLDPQDGETVYAQQFKGRVTMTEDRSTDTAYMEVNNLRSEDTATYYCTTGDFSEFEPFSMDYFHFWGQGTVVTVAS
VL: EIVLTQSPATLSLSPGERATLSCRASQNVSSFLAWYQHKPGQAPRLLIYDASSRATDIPIRFSGSGSGTDFTLTISGLEPEDFAVYYCQQRRSWPPLTFGGGTKVEIKR
notes: also called synthetic IgG; anti-exosite IgG antibody

Tests used:
prothrombin [1] = target: T1, prothrombin (human, UniProt P00734 44-622); test: pull-down with IgA binding lectin-agarose, supernatant on SDS-PAGE
mature human thrombin = mature human thrombin (human, UniProt P00734 314-363; P00734 364-622); test: estimate from the rate of S2238 hydrolysis by thrombin
prothrombin [2] = target: T1, prothrombin; test: ForteBio Octet, immobilized IgG

Binder | binding result (prothrombin [1]) | Kd (mature human thrombin) | binding result (prothrombin [2])
B1 | no binding | ~12 nM | –
B2 | – | – | no binding (tested: 500nM)
